Residue numbers refer to the chain shown, from its start. Values belong to the binder of their own block, whether it stands above or below them.
Assays:
Experiment in all cases: PEPSCAN ELISA, peptide on card, alanine scan
peptide TYSSPEDAIHELFP = molecular target: T1, peptide TYSSPEDAIHELFP
T1 construct: Alanine-scan peptide on a PEPSCAN card; also called replaced amino acid G
T1 peptide: TYSSPEDAIHELFP

peptide TYSSPEDGIHELAP = molecular target: T2, peptide TYSSPEDGIHELAP
T2 construct: Alanine-scan peptide on a PEPSCAN card; also called replaced amino acid F
T2 peptide: TYSSPEDGIHELAP

peptide TYSSPEDGAHELFP = molecular target: T3, peptide TYSSPEDGAHELFP
T3 construct: Alanine-scan peptide on a PEPSCAN card; also called replaced amino acid I
T3 peptide: TYSSPEDGAHELFP

peptide TYSSPEDGIHEAFP = molecular target: T4, peptide TYSSPEDGIHEAFP
T4 construct: Alanine-scan peptide on a PEPSCAN card; also called replaced amino acid L
T4 peptide: TYSSPEDGIHEAFP

Antibody binding (arbitrary optical density units) (peptide TYSSPEDAIHELFP): 89 arbitrary optical density units
Antibody binding (arbitrary optical density units) (peptide TYSSPEDGIHELAP): 106 arbitrary optical density units
Antibody binding (arbitrary optical density units) (peptide TYSSPEDGAHELFP): 66 arbitrary optical density units
B1: antibody 17G8.72 (antibody, V domains shown)
VH: DVQLQESGPDLVKPSQSLSLTCTVTGYSIASGYSWHWIRQFPGNKLEWMGYIHFSGSANYNPSLKSRISITRDTSKNQFFLQLNSVTTEDTATYYCASEARGYFDYWGQGTTLTVSS
VL: DVLMTQTPLSLPVSLGDQASISCRSSQSIVRSNGNTYLTWYLQKPGQSPKLLIYKVSNRFSGVPDRFSGSGSGTDFTLKISRVEAEDLGVYFCFQGSHVPPTFGSGTKLEIKR

Antibody binding (arbitrary optical density units) (peptide TYSSPEDAIHELFP): 81 arbitrary optical density units
Antibody binding (arbitrary optical density units) (peptide TYSSPEDGIHELAP): 124 arbitrary optical density units
Antibody binding (arbitrary optical density units) (peptide TYSSPEDGIHEAFP): 194 arbitrary optical density units
Antibody binding (arbitrary optical density units) (peptide TYSSPEDGAHELFP): 74 arbitrary optical density units
B2: antibody 29E7.35 (antibody, V domains shown)
VH: B1 VH with D1A, Q16H, A30T, F54Y, I68F, S98T, A100K, R101T, Y103F
VL: B1 VL with L3V, I29L, R31H, T39H, F94S, G96S, S97A, S105G

Antibody binding (arbitrary optical density units) (peptide TYSSPEDAIHELFP): 122 arbitrary optical density units
Antibody binding (arbitrary optical density units) (peptide TYSSPEDGIHELAP): 249 arbitrary optical density units
Antibody binding (arbitrary optical density units) (peptide TYSSPEDGAHELFP): 91 arbitrary optical density units
B3: antibody 27A12.70 (antibody, V domains shown)
VH: B1 VH with A30T, F54Y, S57I, Q78H, S98T, A100K, R101T, Y103F
VL: B1 VL with L3V, I29L, R31H, T39H, F94S, G96S, S97A, S105G

Source: US20180264108A1 (ENCARE BIOTECH B V, published 2018)
